In the experiment the target is PD1-Z CLEAR. Put plainly: flow cytometry, T cells 18 h after co-electroporation of PD1-Z RNA and bi-specific antibody RNA, stained with anti-mouse IgG Fab PE and anti-PD1 APC; same quadrant in the controls: EP16 PD1-Z alone 2.42, EP20 No RNA 0.086. Background: In flow cytometry, cells or beads pass a laser one at a time.
PD1-Z CLEAR, sequence (chain, as listed by the source limits assumed): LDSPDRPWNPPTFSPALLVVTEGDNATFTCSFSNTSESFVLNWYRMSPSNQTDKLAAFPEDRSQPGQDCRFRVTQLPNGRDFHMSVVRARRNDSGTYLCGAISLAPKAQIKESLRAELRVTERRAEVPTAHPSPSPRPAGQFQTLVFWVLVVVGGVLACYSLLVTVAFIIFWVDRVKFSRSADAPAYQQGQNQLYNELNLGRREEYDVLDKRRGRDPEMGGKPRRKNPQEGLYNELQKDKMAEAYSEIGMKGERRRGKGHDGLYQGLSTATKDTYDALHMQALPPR

B1: 4A11-4D5-4 (bispecific antibody, part only; not given: anti-ErbB2 scFv 4D5-4 and linker, not shown: another chain or arm of the molecule; small tags and cut ends)
scFv: DIQMTQSPSSLSASVGDRVSITCRASQGISSWLAWYQQKPEKAPKSLIYAASNLRSGVPSRFSGSGSGTDFTLTISSLQPEDFATYYCQQYYSYPRTFGQGTKVEIKGGGGSGGGGSGGGGSQLQLQESGPGLVKPSETLSLTCTVSGGSLSRSSFFWGWIRQPPGKGLEWIGSIYYSGSTYYNPSLKSRVTISVDTSKNQFSLKLSSVTAADTAVYYCVRDYDILTGDEDYWGQGTLVTVSS
B1 came in with a percent of cells PD1+ mIgG Fab+ (upper right quadrant) of 57.1.

B2: 4A11-4D5-3 (bispecific antibody, part only; not given: anti-ErbB2 scFv 4D5-3 and linker, not shown: another chain or arm of the molecule; small tags and cut ends)
scFv: DIQMTQSPSSLSASVGDRVSITCRASQGISSWLAWYQQKPEKAPKSLIYAASNLRSGVPSRFSGSGSGTDFTLTISSLQPEDFATYYCQQYYSYPRTFGQGTKVEIKGGGGSGGGGSGGGGSQLQLQESGPGLVKPSETLSLTCTVSGGSLSRSSFFWGWIRQPPGKGLEWIGSIYYSGSTYYNPSLKSRVTISVDTSKNQFSLKLSSVTAADTAVYYCVRDYDILTGDEDYWGQGTLVTVSS
For the molecule B2, the percent of cells PD1+ mIgG Fab+ (upper right quadrant) is 35.6.

For the origin of these results see patent publication US20170258835A1.
